# Data: paper PMC5114558, “Reader domain specificity and lysine demethylase-4 family function” (Nature Communications, 2016)
# T1: H3 (17-32) K23me3 peptide, fluorescein-labelled, P68431
# T1 chain: RKQLATKAARKSAPAT
# Assays:
# [1] = target: T1, H3 (17-32) K23me3 peptide, …; test: fluorescence polarization; settings: chain shown with the change
# [2] = target: H3 (17-32) K23me3 peptide, fluorescein-labelled (UniProt P68431); test: fluorescence polarisation; fluorescein-labelled histone peptide 3 nM, KDM4 DTD titrated 0.1-100 μM; 30 mM HEPES, 150 mM NaCl pH 7.4, 0.01% Triton X-100
Binder,Kd [1] [µM],Kd [2] [µM]
"KDM4A double tudor domain (KDM4A-DTD), HaloTag-tagged, wild type, O75164 N931D; D939R; D945R (protein) ALQSITAGQKVISKHKNGRFYQCEVVRLTTETFYEVDFDDGSFSRNLYPERIVSQDCLQFGPPAEGEVVQVRWTDGQVYGAKFVASHPIQMYQVEFEDGSQLVVKRDDVYTLDEELP",3.1,–
KDM4A-DTD N940A (domain or fragment) ALQSITAGQKVISKHKNGRFYQCEVVRLTTETFYEVNFDDGSFSDALYPEDIVSQDCLQFGPPAEGEVVQVRWTDGQVYGAKFVASHPIQMYQVEFEDGSQLVVKRDDVYTLDEELP,–,57.4
KDM4A-DTD Y973A (aromatic cage substitution) (domain or fragment) ALQSITAGQKVISKHKNGRFYQCEVVRLTTETFYEVNFDDGSFSDNLYPEDIVSQDCLQFGPPAEGEVVQVRWTDGQVAGAKFVASHPIQMYQVEFEDGSQLVVKRDDVYTLDEELP,–,285
KDM4A-DTD N931D (domain or fragment) ALQSITAGQKVISKHKNGRFYQCEVVRLTTETFYEVDFDDGSFSDNLYPEDIVSQDCLQFGPPAEGEVVQVRWTDGQVYGAKFVASHPIQMYQVEFEDGSQLVVKRDDVYTLDEELP,–,0.85
KDM4A-DTD N931R (domain or fragment) ALQSITAGQKVISKHKNGRFYQCEVVRLTTETFYEVRFDDGSFSDNLYPEDIVSQDCLQFGPPAEGEVVQVRWTDGQVYGAKFVASHPIQMYQVEFEDGSQLVVKRDDVYTLDEELP,–,73.9
